Drawing on patent US20160046944, “APTAMER TO IL-17 AND USE THEREOF” (THE UNIVERSITY OF TOKYO, published 2016), this text covers IC50 and binding signal for 20 molecules.

Details in all cases: chain copies: 2
Data set [1] addresses T1, IL-17 (Homo sapiens, UniProt Q16552 Q16552:24-155).
T1 sequence: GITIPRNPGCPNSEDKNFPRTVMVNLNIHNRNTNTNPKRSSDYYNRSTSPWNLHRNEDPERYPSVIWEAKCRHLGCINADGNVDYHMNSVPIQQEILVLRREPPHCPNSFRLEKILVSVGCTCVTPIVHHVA
Briefly: cell_activity; NIH3T3 IL-6 release. Here is the method: (§1) First, human IL-17 and the aptamer produced in Example 1-1 were pre-incubated at 37° C. for 30 min, and added to NIH3T3 cell (ATCC, CRL1658) together with mouse TNFα (2 ng/mL). Then, after incubation for 24 hr, the culture supernatant was collected, and the amount of IL-6 was measured by BD Cytometric Bead Array (BD Biosciences). The IL-17 inhibitory action of each aptamer was determined from the amount of IL-6. For comparison with the aptamer of the present invention, a conventionally-known aptamer (aptamer No. 50) against IL-17 was used.

Data set [2] concerns the target T1, IL-17. Briefly: SPR; IL-17R-Fc on chip. Here is the method:
Whether aptamers shown by aptamer Nos. 1-49 inhibit the binding of IL-17 and IL-17 receptor was evaluated by the surface plasmon resonance method.
For the measurement, BIAcore2000 manufactured by BIAcore was used. […] As an analyte, IL-17 (100 or 150 nM) and an aptamer (50 or 100 nM) shown by aptamer No. 1-49 were mixed, maintained for 15 min and after that the mixture was flown.

In the next data set the target is T2, IL-17 (IL-17A) (Homo sapiens, UniProt Q16552 Q16552:24-155).
T2 sequence: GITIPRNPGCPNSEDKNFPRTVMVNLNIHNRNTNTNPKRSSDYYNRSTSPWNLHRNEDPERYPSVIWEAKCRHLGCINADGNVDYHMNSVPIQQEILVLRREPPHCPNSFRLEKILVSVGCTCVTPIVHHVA
Briefly: cell_activity; IL-6 release, NIH3T3. As to the method:
as §1

B1: aptamer No. 16 (mixed)
mixed: GGGGUAGCCGGAGGAGTCAGTAAUCGGUACCCC
modifications: 2'-OMe (M), 2'-F (F), PS (S) as marked; uppercase DNA [2'-OMe: 1-5,8,9,11,14,15,22-27,29; 2'-F: 12,18,19,28; PS: 7]
In the data set with IL-17 [1], B1 returned an IC50 of 0.25 nM. In the data set with IL-17 [2], the binding signal is 27.9 % IL-17/IL-17R binding remaining.

B2: aptamer No. 18 (mixed)
mixed: GGGGUAGCCGGAGGAGTCAGTAAUCGGUACCCC
modifications: 2'-OMe (M), 2'-F (F), PS (S) as marked; uppercase DNA; (NI) printed, likely (M) [2'-OMe: 1-5,8,9,11,14,15,24-27,29 (26 printed NI, likely M); 2'-F: 12,18,19,28; PS: 7]
With B2, in the data set with IL-17 [1], the IC50 is 0.15 nM. Moreover, the binding signal in the data set with IL-17 [2] is 13.6 % IL-17/IL-17R binding remaining.

B3: aptamer No. 17 (mixed)
mixed: GGGGUAGCCGGAGGAGTCAGTAAUCGGUACCCC
modifications: 2'-OMe (M), 2'-F (F), PS (S) as marked; uppercase DNA [2'-OMe: 1-5,8,9,11,14,15,22,24-27,29; 2'-F: 12,18,19,28; PS: 7]
Regarding B3, the IC50 with IL-17 [1] came to 0.3 nM. The binding signal with IL-17 [2] was 4.21 % IL-17/IL-17R binding remaining.

B4: aptamer No. 5 (mixed)
mixed: GGGGUAGCCGGAGGAGTCAGTAAUCGGUACCCC
modifications: 2'-OMe (M), 2'-F (F), PS (S) as marked; uppercase DNA; SEQ ID NO:2 [1,2,3,4,5,6,7,8,9,11,12,14,15,18,19,22,23,24,25,26,27,28]
In the data set with IL-17 [1], B4 yielded an IC50 of 0.13 nM. Besides, the binding signal with IL-17 [2] was 32.3 % IL-17/IL-17R binding remaining.

B5: aptamer No. 7 (mixed)
RNA: GGGUAGCCGGAGGAGUCAGUAAUCGGUACCC
modifications: 2'-OMe (M), 2'-F (F), PS (S) as marked; uppercase DNA [1,2,3,4,6,7,8,10,11,13,14,16,17,18,20,23,24,25,26,27,28]
B5: in the data set with IL-17 [1], inhibition was half-maximal at 0.3 nM (IC50). The binding signal with IL-17 [2] is 18.4 % IL-17/IL-17R binding remaining.

B6: aptamer No. 31 (mixed)
mixed: GGGUAGCCGGAGGAGTCAGTAAUCGGTACCC
modifications: g(M)g(M)g(M)u(M)Ag(S)c(M)c(M)Gg(M)Agg(M)a(M)gTc(F)agTaau(M)c(M)g(M)g(M)TAc(M)c(M)c(M)
B6 registered a half-inhibitory concentration (IC50) with IL-17 (IL-17A) of 0.3 nM. Take GGGUAGCCGGAGGAGTCAGTAAUCGGTACCC (mixed, g(M)g(M)g(M)u(M)Agc(M)c(M)gg(M)Agg(M)a(M)gTc(F)agTa(M)Au(M)c(M)g(M)g(M)TACCC) [aptamer No. 33]: inhibition with IL-17 (IL-17A) was half-maximal at 4.31 nM (IC50).

B7: aptamer No. 15 (mixed)
mixed: GGGUAGCCGGAGGAGTCAGTAAUCGGUACCC
modifications: 2'-OMe (M), 2'-F (F) as marked; uppercase DNA [2'-OMe: 1-4,7,8,10,13,14,21,23-26,28; 2'-F: 6,11,17,18,27]
The molecule B7 showed a 50% inhibitory concentration (IC50) with IL-17 [1] of 0.63 nM. Besides, in the data set with IL-17 [2], the binding signal is 14.2 % IL-17/IL-17R binding remaining.

B8: aptamer No. 13 (mixed)
mixed: GGGUAGCCGGAGGAGTCAGTAAUCGGUACCC
modifications: 2'-OMe (M), 2'-F (F) as marked; uppercase DNA; (N) printed, likely (M) [1,2,3,4,7,8,10,11,13,14,17,18,21,23,24,25,26,27,28]
On to B8, for which inhibition with IL-17 [1] was half-maximal at 0.4 nM (IC50). Besides, the binding signal with IL-17 [2] is 13.8 % IL-17/IL-17R binding remaining.

B9: aptamer No. 37 (mixed)
mixed: GGGUAGCCGGAGGAGTCAGTAAUCGGTACCC
modifications: g(M)g(M)g(M)u(M)Agc(M)c(M)Gg(M)Agg(M)a(M)gTc(F)agTaAu(M)c(M)g(M)g(M)Ta(M)c(M)c(M)c(M) (one (M) misprinted as (NI))
In the data set with IL-17 (IL-17A), B9 returned an IC50 of 1.64 nM.

B10: aptamer No. 49 (mixed)
mixed: GGGUAGCCGGAGGAGTCAGTAAUCGGUACCC
modifications: g(M)g(M)g(M)u(M)Agc(M)c(M)Gg(M)Agg(M)a(M)gTc(F)agTaau(M)c(M)g(M)g(M)u(F)a(M)CCC (one (M) misprinted as (PI))
B10 returned an IC50 with IL-17 (IL-17A) of 0.65 nM.

B11: aptamer No. 38 (mixed)
mixed: GGGUAGCCGGAGGAGTCAGTAAUCGGTACCC
modifications: g(M)g(M)g(M)u(M)Agc(M)c(M)Gg(M)Agg(M)a(M)gTc(F)agTa(M)au(M)c(M)g(M)g(M)Ta(M)c(M)c(M)c(M)
The molecule B11 showed a half-maximal inhibitory concentration (IC50) in the data set with IL-17 (IL-17A) of 0.31 nM.

B12: aptamer No. 11 (mixed)
mixed: GGGUAGCCGGAGGAGTCAGTAAUCGGUACCC
modifications: 2'-OMe (M), 2'-F (F), PS (S) as marked; uppercase DNA [1,2,3,4,6,7,8,10,11,13,14,17,18,21,23,24,25,26,27,28]
In turn, B12 yielded an IC50 with IL-17 [1] of 0.34 nM. Besides, the binding signal with IL-17 [2] was 16.8 % IL-17/IL-17R binding remaining.

B13: aptamer No. 42 (mixed)
mixed: GGGUAGCCGGAGGAGTCAGTAAUCGGTACCC
modifications: g(M)g(M)g(M)u(M)Agc(M)c(M)Gg(M)agg(M)a(M)gTc(F)agTaAu(M)c(M)g(M)g(M)Ta(M)c(M)c(M)c(M)
The molecule B13 returned an IC50 with IL-17 (IL-17A) of 0.51 nM.

B14: aptamer No. 44 (mixed)
mixed: GGGUAGCCGGAGGAGTCAGTAAUCGGTACCC
modifications: g(M)g(M)g(M)u(M)Agc(M)c(M)Gg(M)agg(M)a(M)gTc(F)AgTa(M)au(M)c(M)g(M)g(M)Ta(M)c(M)c(M)c(M)
Regarding B14, in the data set with IL-17 (IL-17A), the concentration for half-maximal inhibition (IC50) was 1.83 nM. Molecule GGGUAGCCGGAGGAGTCAGTAAUCGGUACCC (mixed, g(M)g(M)g(M)u(M)Agc(M)c(M)Gg(M)agg(M)a(M)gTc(F)agTaau(M)c(M)g(M)g(M)u(F)a(M)CCC) [aptamer No. 48] had an IC50 in the data set with IL-17 (IL-17A) of 0.3 nM.

B15: aptamer No. 47 (mixed)
mixed: GGGUAGCCGGAGGAGTCAGTAAUCGGUACCC
modifications: g(M)g(M)g(M)u(M)Agc(M)c(M)Gg(M)a(F)gg(M)a(M)gTc(F)a(F)gTaau(M)c(M)g(M)g(M)u(F)a(M)CCC
In the data set with IL-17 (IL-17A), B15 displayed a half-inhibitory concentration (IC50) of 0.59 nM.

B16: aptamer No. 29 (mixed)
mixed: GGGUAGCCGGAGGAGTCAGTAAUCGGTACCC
modifications: g(M)g(M)g(M)u(M)Agc(M)c(M)Gg(M)Agg(M)a(M)gTc(F)agTa(M)a(M)u(M)c(M)g(M)g(M)Ta(M)c(M)c(M)c(M)
As to B16, the IC50 with IL-17 (IL-17A) was found to be 2.53 nM.

B17: aptamer No. 14 (mixed)
mixed: GGGUAGCCGGAGGAGTCAGTAAUCGGUACCC
modifications: 2'-OMe (M), 2'-F (F) as marked; uppercase DNA [1,2,3,4,6,7,8,10,11,13,14,17,18,21,22,23,24,25,26,27,28]
B17 displayed a concentration for half-maximal inhibition (IC50) in the data set with IL-17 [1] of 0.5 nM. Besides, the binding signal with IL-17 [2] is 16.5 % IL-17/IL-17R binding remaining.

B18: aptamer No. 35 (mixed)
mixed: GGGUAGCCGGAGGAGTCAGTAAUCGGTACCC
modifications: g(M)g(M)g(M)u(M)Agc(M)c(M)Gg(M)Agg(M)a(M)gTc(F)AgTa(M)Au(M)c(M)g(M)g(M)Ta(M)c(M)c(M)c(M)
Consider B18, for which 2.47 nM corresponded to half-maximal inhibition with IL-17 (IL-17A) (IC50).
